Test results published in article PMC6856136, “Topological DNA-binding of structural maintenance of chromosomes-like RecN promotes DNA double-strand break repair in Escherichia coli” (Communications Biology, 2019).

Molecular target: the molecule itself
Experiment: SEC; gel filtration chromatography of purified His-RecN; single peak at a position indicating 308 kDa; column and buffer not told in the methods shown

B1: N-terminally hexahistidine-fused RecN (His-RecN), Escherichia coli (natural protein, E. coli, UniProt P05824 1-553, looked up)
chain: MLAQLTISNFAIVRELEIDFHSGMTVITGETGAGKSIAIDALGLCLGGRAEADMVRTGAARADLCARFSLKDTPAALRWLEENQLEDGHECLLRRVISSDGRSRGFINGTAVPLSQLRELGQLLIQIHGQHAHQLLTKPEHQKFLLDGYANETSLLQEMTARYQLWHQSCRDLAHHQQLSQERAARAELLQYQLKELNEFNPQPGEFEQIDEEYKRLANSGQLLTTSQNALALMADGEDANLQSQLYTAKQLVSELIGMDSKLSGVLDMLEEATIQIAEASDELRHYCDRLDLDPNRLFELEQRISKQISLARKHHVSPEALPQYYQSLLEEQQQLDDQADSQETLALAVTKHHQQALEIARALHQQRQQYAEELAQLITDSMHALSMPHGQFTIDVKFDEHHLGADGADRIEFRVTTNPGQPMQPIAKVASGGELSRIALAIQVITARKMETPALIFDEVDVGISGPTAAVVGKLLRQLGESTQVMCVTHLPQVAGCGHQHYFVSKETDGAMTETHMQSLNKKARLQELARLLGGSEVTRNTLANAKELLAA
notes: RecN, Escherichia coli; a fragment containing the recN gene from the pRecN plasmid cloned into pET15b; Copies: by gel filtration 'a homo-oligomeric complex, most likely a tetramer' (308 kDa); the discussion speaks of multimers larger than tetramers. pET15b may add linker residues between the His tag and RecN (surmised); also called E. coli RecN; source: E. coli BL21 (DE3), pET15b derivative, …
  stoichiometry N: ~4
